Measurements published in IntAct's records for PubMed 31515488.

B1: Ribosome biogenesis protein SLX9 homolog (Homo sapiens), Q9NSI2 (parent)
chain: MGKVRGLRARVHQAAVRPKGEAAPGPAPPAPEATPPPASAAGKDWAFINTNIFARTKIDPSALVQKLELDVRSVTSVRRGEAGSSARSVPSIRRGAEAKTVLPKKEKMKLRREQWLQKIEAIKLAEQKHREERRRRATVVVGDLHPLRDALPELLGLEAGSRRQARSRESNKPRPSELSRMSAAQRQQLLEEERTRFQELLASPAYRASPLVAIGQTLARQMQLEDGGQL
partner: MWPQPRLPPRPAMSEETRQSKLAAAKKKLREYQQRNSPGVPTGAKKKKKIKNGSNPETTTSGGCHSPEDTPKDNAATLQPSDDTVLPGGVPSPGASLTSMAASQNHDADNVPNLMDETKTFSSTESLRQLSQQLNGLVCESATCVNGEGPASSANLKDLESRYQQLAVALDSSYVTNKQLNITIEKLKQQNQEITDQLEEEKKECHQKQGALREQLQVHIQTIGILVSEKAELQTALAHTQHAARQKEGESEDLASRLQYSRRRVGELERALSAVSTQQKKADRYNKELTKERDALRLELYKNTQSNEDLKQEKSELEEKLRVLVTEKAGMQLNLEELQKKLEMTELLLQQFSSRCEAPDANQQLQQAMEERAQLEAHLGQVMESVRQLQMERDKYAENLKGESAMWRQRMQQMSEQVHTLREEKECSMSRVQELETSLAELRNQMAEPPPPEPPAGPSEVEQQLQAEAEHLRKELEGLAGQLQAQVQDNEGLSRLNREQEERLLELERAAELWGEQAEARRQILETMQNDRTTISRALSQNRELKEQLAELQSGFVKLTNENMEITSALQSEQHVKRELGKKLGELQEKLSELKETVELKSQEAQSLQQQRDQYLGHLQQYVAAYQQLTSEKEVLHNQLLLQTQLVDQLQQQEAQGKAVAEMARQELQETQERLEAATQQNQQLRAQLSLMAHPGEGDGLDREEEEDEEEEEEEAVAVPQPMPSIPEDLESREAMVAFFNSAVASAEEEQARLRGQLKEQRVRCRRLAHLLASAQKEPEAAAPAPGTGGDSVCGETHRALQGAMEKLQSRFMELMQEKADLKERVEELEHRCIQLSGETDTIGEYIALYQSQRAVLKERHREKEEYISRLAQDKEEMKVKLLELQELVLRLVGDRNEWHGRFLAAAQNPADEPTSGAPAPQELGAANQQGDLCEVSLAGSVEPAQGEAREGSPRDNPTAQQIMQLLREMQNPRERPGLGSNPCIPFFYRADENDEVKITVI
B2: Migration and invasion-inhibitory protein (Homo sapiens), Q5JXC2 (parent)
chain: MVEAEELAQLRLLNLELLRQLWVGQDAVRRSVARAASESSLESSSSYNSETPSTPETSSTSLSTSCPRGRSSVWGPPDACRGDLRDVARSGVASLPPAKCQHQESLGRPRPHSAPSLGTSSLRDPEPSGRLGDPGPQEAQTPRSILAQQSKLSKPRVTFSEESAVPKRSWRLRPYLGYDWIAGSLDTSSSITSQPEAFFSKLQEFRETNKEECICSHPEPQLPGLRESSGSGVEEDHECVYCYRVNRRLFPVPVDPGTPCRLCRTPRDQQGPGTLAQPAHVRVSIPLSILEPPHRYHIHRRKSFDASDTLALPRHCLLGWDIFPPKSEKSSAPRNLDLWSSVSAEAQHQKLSGTSSPFHPASPMQMLPPTPTWSVPQVPRPHVPRQKP
partner: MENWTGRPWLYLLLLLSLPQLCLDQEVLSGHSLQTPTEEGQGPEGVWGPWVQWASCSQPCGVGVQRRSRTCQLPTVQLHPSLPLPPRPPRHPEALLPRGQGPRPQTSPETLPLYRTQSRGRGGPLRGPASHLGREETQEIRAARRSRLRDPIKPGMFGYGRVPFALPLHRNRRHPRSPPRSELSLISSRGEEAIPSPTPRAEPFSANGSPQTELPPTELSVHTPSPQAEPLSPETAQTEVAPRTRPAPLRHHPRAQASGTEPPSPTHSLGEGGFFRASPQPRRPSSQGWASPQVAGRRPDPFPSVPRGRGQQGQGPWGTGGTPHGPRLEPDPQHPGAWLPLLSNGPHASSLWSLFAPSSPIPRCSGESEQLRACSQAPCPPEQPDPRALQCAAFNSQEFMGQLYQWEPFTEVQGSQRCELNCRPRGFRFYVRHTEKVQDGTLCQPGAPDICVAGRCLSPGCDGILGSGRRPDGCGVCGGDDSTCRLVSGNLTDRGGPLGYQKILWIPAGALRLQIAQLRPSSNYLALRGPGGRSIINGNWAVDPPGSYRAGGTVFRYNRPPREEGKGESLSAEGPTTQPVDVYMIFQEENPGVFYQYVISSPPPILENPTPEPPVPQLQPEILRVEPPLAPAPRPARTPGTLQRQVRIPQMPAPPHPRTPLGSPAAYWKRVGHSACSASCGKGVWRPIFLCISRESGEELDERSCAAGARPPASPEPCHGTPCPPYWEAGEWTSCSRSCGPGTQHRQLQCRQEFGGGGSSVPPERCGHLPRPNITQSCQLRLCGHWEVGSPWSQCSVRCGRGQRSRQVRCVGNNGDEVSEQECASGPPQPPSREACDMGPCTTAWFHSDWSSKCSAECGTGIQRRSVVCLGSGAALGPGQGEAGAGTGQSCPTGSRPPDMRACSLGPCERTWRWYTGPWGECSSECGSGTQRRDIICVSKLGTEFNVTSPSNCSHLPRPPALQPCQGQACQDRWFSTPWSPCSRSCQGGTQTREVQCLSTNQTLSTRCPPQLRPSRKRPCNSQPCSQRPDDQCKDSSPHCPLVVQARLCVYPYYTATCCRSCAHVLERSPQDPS
B3: Zinc finger protein Aiolos (Homo sapiens), Q9UKT9 (parent)
chain: MEDIQTNAELKSTQEQSVPAESAAVLNDYSLTKSHEMENVDSGEGPANEDEDIGDDSMKVKDEYSERDENVLKSEPMGNAEEPEIPYSYSREYNEYENIKLERHVVSFDSSRPTSGKMNCDVCGLSCISFNVLMVHKRSHTGERPFQCNQCGASFTQKGNLLRHIKLHTGEKPFKCHLCNYACQRRDALTGHLRTHSVEKPYKCEFCGRSYKQRSSLEEHKERCRTFLQSTDPGDTASAEARHIKAEMGSERALVLDRLASNVAKRKSSMPQKFIGEKRHCFDVNYNSSYMYEKESELIQTRMMDQAINNAISYLGAEALRPLVQTPPAPTSEMVPVISSMYPIALTRAEMSNGAPQELEKKSIHLPEKSVPSERGLSPNNSGHDSTDTDSNHEERQNHIYQQNHMVLSRARNGMPLLKEVPRSYELLKPPPICPRDSVKVINKEGEVMDVYRCDHCRVLFLDYVMFTIHMGCHGFRDPFECNMCGYRSHDRYEFSSHIARGEHRALLK
partner: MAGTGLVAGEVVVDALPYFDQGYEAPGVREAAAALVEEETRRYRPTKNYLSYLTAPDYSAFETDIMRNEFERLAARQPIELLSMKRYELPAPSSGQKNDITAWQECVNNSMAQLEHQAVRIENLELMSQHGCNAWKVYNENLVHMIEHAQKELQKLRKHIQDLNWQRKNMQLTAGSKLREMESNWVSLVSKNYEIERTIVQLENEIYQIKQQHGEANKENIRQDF
B4: Protein LDOC1 (Homo sapiens), O95751 (parent)
chain: MVDELVLLLHALLMRHRALSIENSQLMEQLRLLVCERASLLRQVRPPSCPVPFPETFNGESSRLPEFIVQTASYMLVNENRFCNDAMKVAFLISLLTGEAEEWVVPYIEMDSPILGDYRAFLDEMKQCFGWDDDEDDDDEEEEDDY
partner: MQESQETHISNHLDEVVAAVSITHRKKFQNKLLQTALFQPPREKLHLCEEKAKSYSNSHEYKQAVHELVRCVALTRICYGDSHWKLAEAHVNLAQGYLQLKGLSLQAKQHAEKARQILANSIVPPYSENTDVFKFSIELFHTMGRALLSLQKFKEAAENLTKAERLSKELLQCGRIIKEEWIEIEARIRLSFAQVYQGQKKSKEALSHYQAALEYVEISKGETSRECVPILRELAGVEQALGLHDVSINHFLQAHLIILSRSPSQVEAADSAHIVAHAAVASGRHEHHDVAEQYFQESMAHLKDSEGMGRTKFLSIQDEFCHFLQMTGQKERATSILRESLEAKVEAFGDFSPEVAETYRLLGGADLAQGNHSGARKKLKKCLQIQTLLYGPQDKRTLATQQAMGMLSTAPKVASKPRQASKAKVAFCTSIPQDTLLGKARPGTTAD

Variants of: B1
Details: with goga2_human GOLGA2, Q08379

effect of a mutation on the interaction	Variant
disrupting interaction strength	T138M

Variants of: B2
Details: with atl4_human ADAMTSL4, Q6UY14

effect of a mutation on the interaction	Variant
with no effect	R171C

Variants of: B3
Details: with spf27_human BCAS2, O75934

effect of a mutation on the interaction	Variant
with no effect	N119D
with no effect	A24V

Variants of: B4
Details: with ttc23_human TTC23, Q5W5X9

effect of a mutation on the interaction	Variant
disrupting interaction strength	L12H
